Experimental data: US9688764B2, “Methods of treating breast cancer by administering anti-human prolactin receptor (PRLR) antibodies” (REGENERON PHARMACEUTICALS, INC., priority 2013, dated 2017)

Experiments:
MCF7/PRLR tumors = experiment: Tumor growth inhibition in xenograft-bearing mice; format: in vivo, NCr nude mice; settings: MCF7/PRLR tumors; single dose 15 mg/kg; Day 55
Text: Briefly, 20×10^6 MCF7/PRLR cells (ATCC HTB-22 transfected with full length hPRLR as previously described) were implanted subcutaneously into the left mammary fat pad of female NCr nude mice. In other studies, 10×10^6 PC3/PRLR (ATCC CRL-1435 transfected with full length hPRLR as previously described) were implanted subcutaneously into the left flank of male SCID mice. Additionally, 10×10^6 parental T47D (ATCC HTB-133) or […] T47D#11 cells (ATCC HTB-133 serially passaged in vivo as described below) were subcutaneously implanted into the left flank of female CB17 SCID mice. All mice were obtained from Taconic (Hudson, N.Y.). Each bolus of cells was supplemented with a 90-day estrogen release pellet (1.7 mg/pellet; Innovative Research America, Sarasota Fla.). Once tumors had reached an average volume of 250 mm^3, mice were randomized into groups of seven and dosed with anti-PRLR antibody-drug conjugates of the invention or control reagents. Control reagents included PBS vehicle, free methyl-disulfide DM1 (DM1-SMe) and isotype Control 1-DM1.
In multi-dose studies, mice were dosed once a week for a total of three weeks with tumor volumes and body weights being monitored twice weekly throughout the study. Test ADCs were dosed at 5 and/or 15 mg/kg in the multi-dose studies. In single-dose studies, mice received a single dose of test ADC, and tumor volumes and body weights were monitored twice weekly throughout the study. Test ADCs were dosed at 1, 2.5, 5, and 15 mg/kg in the single-dose studies. Average tumor size as well as tumor growth inhibition relative to the vehicle treated group were calculated for each group. Tumors were measured with calipers twice a week until the average size of the vehicle group reached 1000 mm^3. Tumor size was calculated using the formula (length×width^2)/2. Tumor growth inhibition was calculated according to the following formula: (1−((Tfinal−Tinitial)/(Cfinal−Cinitial)))*100, where T (treated group) and C (control group) represent the mean tumor mass on the day the vehicle group reached 1000 mm^3. […] Results are summarized in Tables 21-25 (multi-dose) and Table 26 (single dose). (NT=not tested in the particular experiment shown).

[1] = test system: HEK293/hPRLR/STAT5-Luc cells (human PRLR); experiment: STAT5-Luc luciferase reporter assay, blocking of PRL-mediated receptor activation; format: cell-based; settings: for IC50: 5 nM constant PRL, 6 hr at 37° C.; for Percent Blocking at 100 nM Antibody: 5 nM PRL
Text: The ability of anti-PRLR antibodies to block prolactin (PRL)-mediated receptor activation was examined in a luciferase-based reporter assay. The endocrine hormone PRL binds to the extracellular domain of its cognate receptor PRLR, triggering rapid homodimerization and activating several downstream signaling cascades.
In this example, an engineered cell line was used to determine the ability of anti-PRLR antibodies to block ligand activation of the PRLR receptor. Briefly, HEK293/hPRLR/STAT5-Luc cell lines with stable incorporation of a human PRLR expression cassette and the STAT5-dependent luciferase reporter were generated via sequential rounds of Lipofectamine® 2000-mediated transfection (LifeTechnologies, Carlsbad, Calif.). Cells were selected for at least two weeks in the presence of 500 μg/mL G418 (hPRLR) and 100 μg/mL hygromycin B (STAT5-Luc). The STAT5-Luc assay utilized 2×10^5 HEK293/hPRLR/STAT5-Luc cells seeded in complete growth medium on PDL-coated 96 well plates grown overnight at 37° C., 5% CO2. To generate antibody inhibition curves, cells were incubated (6 hr at 37° C.) with serially diluted anti-human PRLR antibodies (100 nM to 24 pM) in the presence of 5 nM constant PRL before recording signal. PRL dose response curves were generated by the addition of serially diluted PRL (100 nM to 24 pM) to cells and recording signal after a 6 hr (37° C.) incubation in the absence of antibodies. The ability of the antibodies to activate PRLR in the absence of ligand was also assessed.
Luciferase activity was measured with ONE-GLO™ reagent (Promega, Madison, Wis.). Relative light units (RLUs) were measured on a Victor luminometer (Perkin Elmer, Shelton, Conn.). EC50/IC50 values were determined from a four-parameter logistic equation over an 8-point response curve using GraphPad Prism. Percent blocking and percent activation are reported for the highest antibody dose.

[2] = molecular target: mfPRLR.mmh (monomeric macaca fascicularis PRLR); experiment: Surface plasmon resonance (Biacore T200), mAb-capture format; format: binding; settings: antibody-capture format, analyte mfPRLR.mmh
Procedure: (§1) Antibodies, expressed as human IgG1 Fc “[…]” designations), were captured onto an anti-human Fc sensor surface (mAb-capture format), and soluble monomeric (hPRLR.mmh; SEQ ID NO:401, or macaca fascicularis (mf) PRLR.mmh; SEQ ID NO:403) or dimeric (hPRLR.mFc; SEQ ID NO:402) PRLR protein was injected over the sensor surface. Measurements were conducted on a T200 Biacore instrument. Kinetic association (ka) and dissociation (kd) rate constants were determined by processing and fitting the data to a 1:1 binding model using Scrubber 2.0 curve fitting software.

[3] = molecular target: T1, hPRLR.mmh (soluble monomeric human PRLR) (Homo sapiens, UniProt P16471); experiment: as above; format: binding; settings: antibody-capture format, analyte hPRLR.mmh
T1 construct: soluble monomeric (hPRLR.mmh); mmh (myc-myc-hexahistidine)
Procedure: as §1

[4] = molecular target: T2, hPRLR.mFc (soluble dimeric human PRLR) (Homo sapiens, UniProt P16471); experiment: as above; format: binding; settings: antibody-capture format, analyte hPRLR.mFc
T2 construct: dimeric (hPRLR.mFc)
Procedure: as §1

T1 sequence (P16471 with tags, fused parts or gaps): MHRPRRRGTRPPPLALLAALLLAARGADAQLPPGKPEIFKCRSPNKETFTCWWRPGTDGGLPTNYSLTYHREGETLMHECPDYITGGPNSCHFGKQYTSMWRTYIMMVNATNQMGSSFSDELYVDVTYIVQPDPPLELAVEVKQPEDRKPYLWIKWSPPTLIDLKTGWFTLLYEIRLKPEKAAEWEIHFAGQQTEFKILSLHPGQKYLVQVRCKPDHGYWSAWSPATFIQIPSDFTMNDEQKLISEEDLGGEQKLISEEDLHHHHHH
Chain of mfPRLR.mmh (monomeric macaca fascicularis PRLR) (as listed by the source): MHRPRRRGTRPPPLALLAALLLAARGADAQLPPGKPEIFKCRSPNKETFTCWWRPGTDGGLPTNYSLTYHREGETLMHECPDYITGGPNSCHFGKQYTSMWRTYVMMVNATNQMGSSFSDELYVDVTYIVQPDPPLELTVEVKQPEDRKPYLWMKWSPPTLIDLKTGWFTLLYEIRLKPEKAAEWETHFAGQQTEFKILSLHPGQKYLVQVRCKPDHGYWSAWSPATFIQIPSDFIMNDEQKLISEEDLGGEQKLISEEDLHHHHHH
T2 sequence (P16471 with tags, fused parts or gaps): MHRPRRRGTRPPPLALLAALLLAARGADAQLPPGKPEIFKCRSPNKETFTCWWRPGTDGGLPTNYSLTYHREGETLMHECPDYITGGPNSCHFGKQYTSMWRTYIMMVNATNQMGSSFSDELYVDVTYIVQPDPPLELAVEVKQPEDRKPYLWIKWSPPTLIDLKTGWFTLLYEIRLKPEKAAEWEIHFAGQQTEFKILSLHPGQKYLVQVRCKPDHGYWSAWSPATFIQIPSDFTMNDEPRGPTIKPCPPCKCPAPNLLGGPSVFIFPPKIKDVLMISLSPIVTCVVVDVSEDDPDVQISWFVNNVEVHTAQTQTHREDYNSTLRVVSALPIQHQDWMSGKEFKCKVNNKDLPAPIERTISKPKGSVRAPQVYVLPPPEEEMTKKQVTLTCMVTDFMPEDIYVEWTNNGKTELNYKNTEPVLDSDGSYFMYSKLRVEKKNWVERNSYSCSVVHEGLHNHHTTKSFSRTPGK

Row | Molecule | Average Tumor Growth Inhibition (%) (MCF7/PRLR tumors) | IC50 [1] [nM] | Percent Blocking at 100 nM Antibody [1] [%] | Kd ([2]; 25° C.) [nM] | T½ ([2]; 25° C.) [min] | Kd ([2]; 37° C.) [nM] | T½ ([2]; 37° C.) [min] | Kd ([3]; 25° C.) [nM] | T½ ([3]; 25° C.) [min] | Kd ([3]; 37° C.) [nM] | T½ ([3]; 37° C.) [min] | Kd ([4]; 25° C.) [nM] | T½ ([4]; 25° C.) [min] | Kd ([4]; 37° C.) [nM] | T½ ([4]; 37° C.) [min]
1 | H1H6958N2: human IgG1 Fc form of H2M6958N2; anti-PRLR, receptor blocking; HCVR/LCVR SEQ ID NOs 290/298 (antibody, V domains shown, human IgG1 Fc) VH: QVQLVESGGGVVQPGRSLRLSCGASGFTFRNYGMQWVRQGPGKGLEWVTLISFDGNDKYYADSVKGRFTISRDNSKNTLFLQMNSLRTEDTAVYYCARGGDFDYWGQGTLVTVSS VL: DIQMTQSPSSLSASVGDRVTITCRASQDIRKDLGWYQQKPGKAPKRLIYAASSLHSGVPSRFSGSGSGTEFTLTISSLQPEDFATYYCLQHNSYPMYTFGQGTKLEIK | 1 | 0.198 | 100 | 1.44 | 41.3 | 4.08 | 8.6 | 1.17 | 42.5 | 3.16 | 8.8 | 0.0867 | 315.8 | 0.167 | 83.3
2 | H1H6797P: anti-PRLR antibody, human IgG1 Fc; HCVR/LCVR SEQ ID NOs 178/186 (antibody, V domains shown, human IgG1 Fc) VH: EVQLVESGGGLVQPGGSLRLSCIVSGFTFSGSWMSWVRQLPGKGLEWVANIKEDGSDSYYVDSVEGRFTISRDNAKSSLYLQMNSLRVDDTAVYFCARARTVPLHYWGQGTLVTVSS VL: DIQMTQSPSTLSASVGDRVTITCRASQSINIWLAWYQQKPGKAPKLLIYRASYLESGVPSSFAGGGSGTEFTLTISSLQPDDFGTYYCQHYNSYPFTFGQGTKLEIK | – | – | 0 | 3.12 | 6 | 9.9 | 1 | 1.73 | 6 | 6.37 | 1 | 0.122 | 97 | 0.0691 | 93
3 | H1H6800P: anti-PRLR antibody, human IgG1 Fc; HCVR/LCVR SEQ ID NOs 194/202 (antibody, V domains shown, human IgG1 Fc) VH: EVQLVESGGGLVQPGRSLRLSCAASGFTFDGYAMHWVRQGPGKGLEWVSGISWYSDTLGYADSVKGRFTISRDNAKNSLYLQMNSLRTEDTAFYYCAKISSSGWAFDYWGQGTLVTVSS VL: EIVLTQSPGTLSLSPGERATLSCRASHSVSSAYLAWYQQKPGQTPRLLIYGTSSRATGIPDRFSGSGSGTDFTLTISRLEPEDFAVYYCQQYGSSPLFTFGPGTKVDIK | – | 0.355 | 100 | 1.25 | 30 | 2.48 | 11 | 0.972 | 28 | 1.47 | 10 | 0.184 | 133 | 0.229 | 79
4 | H1H6801P: anti-PRLR antibody, human IgG1 Fc; HCVR/LCVR SEQ ID NOs 210/218 (antibody, V domains shown, human IgG1 Fc) VH: QVQLQQSGPGLVKPSQTLSLTCVISGDSVSSNTAWNWVRQSPSRGLEWLGRTYYRSKWYNDYAVSVKSRITINPDTSKNQFSLLMNSVTPEDTAVYYCARVVRGLNYFDYWGQGTLVTVSS VL: DIVMTQSPDSLAVSLGERATINCKSSQSVLYNSNNKNYLAWYQQKPGQPPKLLIYWSSSRESGVPDRFSGSGSGTDFTLTISGLQAEDVAIYYCQQYSTIPYTFGQGTKLEIK | – | 0.14 | 100 | 1.88 | 9 | 10.8 | 1 | 0.894 | 15 | 4.63 | 3 | 0.161 | 106 | 0.279 | 52
5 | H1H6803P: anti-PRLR antibody, human IgG1 Fc; HCVR/LCVR SEQ ID NOs 226/234 (antibody, V domains shown, human IgG1 Fc) VH: EVQLVESGGGVVRPGGSLRLSCAASGFKFDDYGMTWVRHVPGKGLEWVSGINWNGGRTGYTDSVKGRFTISRDNAKNSLYLQMNSLRAEDTALYHCAGARRDAFDIWGQGTMVTVSS VL: DIQMTQSPSSLSASIGDRVTITCRASQNIIKYLNWYQQNAGKAPKLLIYTASSLQSGVPSRFSGSGSGTDFTLTISSLQPEDFATYYCQQSSSSPYTFGQGTKLEIK | – | 0.627 | 100 | 3.37 | 55 | 7.28 | 18 | 1.67 | 84 | 2.83 | 32 | 0.607 | 184 | 0.461 | 186
6 | H1H6804P: anti-PRLR antibody, human IgG1 Fc; HCVR/LCVR SEQ ID NOs 242/250 (antibody, V domains shown, human IgG1 Fc) VH: QVTLKESGPVLVKPTQTLSLTCTVSGFSLSDAGMGVSWIRQPPGKALEWLAHIFSNDGKSYSTSLKSRLTISKDTSKRQVVLTMTNMDPVDTATYYCARIRTGTYSLYLDYWGQGTLVTVSS VL: DIQMTQSPSSLSASVGDRVTITCRASQSINSYLNWYQQKPGKAPKLLLYFASSLQSGVPSRFSGSGSGTDFTLTISSLQPEDFASYYCQESYSTPWTFGQGTKVEIK | – | 7.89 | 100 | 1.99 | 18 | 9.35 | 3 | 1.4 | 18 | 6.34 | 3 | 0.193 | 133 | 0.369 | 56
